What was measured:
[1] = target: MC179, the CD36-binding portion (M2 subdomain) of the CIDR1α domain of PfEMP1 from the Malayan Camp (MC) strain of P. falciparum (Plasmodium falciparum (Malayan Camp strain)); assay: SEC; refolded MC179 on a Superdex 75 size exclusion column; species with the mobility of dimers separated from monomers
[2] = target: MC179, the CD36-binding portion (M2 subdomain) of the CIDR1α domain of PfEMP1 from the Malayan Camp (MC) strain of P. falciparum (Plasmodium falciparum (Malayan Camp strain)); assay: cross-linking; chemical cross-linking of MC179 in solution (data not shown)

**Q.** Which results are given for “MC179, the CD36-binding portion (M2 subdomain) of the CIDR1α domain of PfEMP1 from the Malayan Camp (MC) strain of P. falciparum (domain or fragment)”?
**A.** stoichiometry N [1]: 2; stoichiometry N [2]: 2

Reference: article PMC2518858
